Source: patent US20120219562A1

target: human interleukin 12 (p70 heterodimer of p35 and p40) (human) (UniProt P29459); assay: SPR (BIAcore), off-rate
Sequence (P29459 23-219, chain 1 of 2): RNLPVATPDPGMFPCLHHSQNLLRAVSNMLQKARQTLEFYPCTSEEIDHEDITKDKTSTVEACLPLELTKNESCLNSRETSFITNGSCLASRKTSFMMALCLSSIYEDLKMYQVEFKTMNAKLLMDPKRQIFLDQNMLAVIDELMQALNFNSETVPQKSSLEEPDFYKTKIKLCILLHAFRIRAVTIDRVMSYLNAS
Sequence (P29460 23-328, chain 2 of 2, further chain): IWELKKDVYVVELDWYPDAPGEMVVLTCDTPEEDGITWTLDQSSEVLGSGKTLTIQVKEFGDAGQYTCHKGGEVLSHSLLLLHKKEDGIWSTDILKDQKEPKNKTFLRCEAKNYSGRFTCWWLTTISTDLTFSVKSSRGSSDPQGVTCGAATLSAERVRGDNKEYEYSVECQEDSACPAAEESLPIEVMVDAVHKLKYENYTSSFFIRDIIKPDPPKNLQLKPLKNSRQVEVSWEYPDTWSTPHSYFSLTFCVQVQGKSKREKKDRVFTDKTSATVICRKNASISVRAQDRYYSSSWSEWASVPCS

| Substance | koff [s⁻¹] |
| --- | --- |
| SEQ ID NO: 400 (Y61, L at H58) (antibody) | 0.00073 |
| SEQ ID NO: 442 (Y61, A at H98) (antibody) | 0.000673 |
| SEQ ID NO: 392 (Y61, I at H56) (antibody) | 0.000169 |
| SEQ ID NO: 466 (Y61, I at H102) (antibody) | 0.000996 |
| SEQ ID NO: 441 (Y61, T at H98) (antibody) | 0.000227 |
| SEQ ID NO: 391 (Y61, L at H56) (antibody) | 0.000264 |
| SEQ ID NO: 423 (Y61, I at H96) (antibody) | 0.00208 |
| SEQ ID NO: 412 (Y61, P at H95) (antibody) | 0.00471 |
| SEQ ID NO: 394 (Y61, F at H56) (antibody) | 0.000345 |
| SEQ ID NO: 407 (Y61, K at H95) (antibody) | 0.00228 |
| SEQ ID NO: 433 (Y61, G at H97) (antibody) | 0.00229 |
| SEQ ID NO: 405 (Y61, S at H95) (antibody) | 0.00193 |
| SEQ ID NO: 467 (Y61, P at H102) (antibody) | 0.00181 |
| SEQ ID NO: 448 (Y61, S at H101) (antibody) | 0.000449 |
| SEQ ID NO: 451 (Y61, R at H101) (antibody) | 0.0011 |
| SEQ ID NO: 409 (Y61, T at H95) (antibody) | 0.00202 |
| SEQ ID NO: 428 (Y61, Y at H97) (antibody) | 0.00273 |
| SEQ ID NO: 389 (Y61, G at H56) (antibody) | 0.000272 |
| SEQ ID NO: 464 (Y61, A at H102) (antibody) | 0.000382 |
| SEQ ID NO: 417 (Y61, R at H96) (antibody) | 0.000982 |
| SEQ ID NO: 450 (Y61, H at H101) (antibody) | 0.00327 |
| SEQ ID NO: 401 (Y61, I at H58) (antibody) | 0.000657 |
| SEQ ID NO: 465 (Y61, L at H102) (antibody) | 0.000956 |
| SEQ ID NO: 415 (Y61, C at H96) (antibody) | 0.000242 |

| Substance | koff [s⁻¹] |
| --- | --- |
| SEQ ID NO: 458 (Y61, H at H102) (antibody) | 0.00018 |
| SEQ ID NO: 396 (Y61, S at H58) (antibody) | 0.000941 |
| SEQ ID NO: 445 (Y61, I at H98) (antibody) | 0.000343 |
| SEQ ID NO: 424 (Y61, P at H96) (antibody) | 0.00129 |
| SEQ ID NO: 462 (Y61, T at H102) (antibody) | 0.000333 |
| SEQ ID NO: 468 (Y61, W at H102) (antibody) | 0.000235 |
| SEQ ID NO: 453 (Y61, G at H101) (antibody) | 0.00375 |
| SEQ ID NO: 386 (Y61, H at H56) (antibody) | 0.00042 |
| Y61 with H31S→E (antibody) | 0.000219 |
| SEQ ID NO: 457 (Y61, S at H102) (antibody) | 0.000325 |
| SEQ ID NO: 429 (Y61, H at H97) (antibody) | 0.00191 |
| SEQ ID NO: 388 (Y61, T at H56) (antibody) | 0.000235 |
| SEQ ID NO: 455 (Y61, V at H101) (antibody) | 0.00163 |
| SEQ ID NO: 436 (Y61, P at H97) (antibody) | 0.003 |
| SEQ ID NO: 454 (Y61, A at H101) (antibody) | 0.00106 |
| SEQ ID NO: 443 (Y61, V at H98) (antibody) | 0.000293 |
| SEQ ID NO: 431 (Y61, N at H97) (antibody) | 0.00221 |
| SEQ ID NO: 435 (Y61, I at H97) (antibody) | 0.00208 |
| SEQ ID NO: 395 (Y61, E at H58) (antibody) | 0.000416 |
| SEQ ID NO: 460 (Y61, R at H102) (antibody) | 0.000575 |
| SEQ ID NO: 456 (Y61, I at H101) (antibody) | 0.00162 |
| SEQ ID NO: 452 (Y61, N at H101) (antibody) | 0.00223 |
| SEQ ID NO: 421 (Y61, M at H96) (antibody) | 0.00204 |
| SEQ ID NO: 404 (Y61, E at H95) (antibody) | 0.00231 |

| Substance | koff [s⁻¹] |
| --- | --- |
| SEQ ID NO: 411 (Y61, L at H95) (antibody) | 0.00147 |
| SEQ ID NO: 390 (Y61, M at H56) (antibody) | 0.000383 |
| SEQ ID NO: 438 (Y61, F at H97) (antibody) | 0.0018 |
| SEQ ID NO: 414 (Y61, D at H96) (antibody) | 0.00224 |
| Y61 with L50→Y (antibody) | 0.000174 |
| SEQ ID NO: 469 (Y61, F at H102) (antibody) | 0.000318 |
| SEQ ID NO: 413 (Y61, F at H95) (antibody) | 0.00514 |
| SEQ ID NO: 393 (Y61, P at H56) (antibody) | 0.000299 |
| SEQ ID NO: 425 (Y61, W at H96) (antibody) | 0.00197 |
| SEQ ID NO: 410 (Y61, A at H95) (antibody) | 0.0015 |
| SEQ ID NO: 416 (Y61, H at H96) (antibody) | 0.000237 |
| SEQ ID NO: 434 (Y61, A at H97) (antibody) | 0.00143 |
| SEQ ID NO: 403 (Y61, F at H58) (antibody) | 0.000794 |
| SEQ ID NO: 426 (Y61, D at H97) (antibody) | 0.00202 |
| SEQ ID NO: 440 (Y61, R at H98) (antibody) | 0.00034 |
| SEQ ID NO: 385 (Y61, Y at H56) (antibody) | 0.00039 |
| SEQ ID NO: 463 (Y61, G at H102) (antibody) | 0.000692 |
| SEQ ID NO: 459 (Y61, K at H102) (antibody) | 0.000405 |
| SEQ ID NO: 437 (Y61, W at H97) (antibody) | 0.00239 |
| SEQ ID NO: 399 (Y61, V at H58) (antibody) | 0.000524 |
| SEQ ID NO: 398 (Y61, N at H58) (antibody) | 0.000831 |
| SEQ ID NO: 402 (Y61, P at H58) (antibody) | 0.000628 |

target: human interleukin 12 (recombinant human IL-12, p70 heterodimer) (human) (UniProt P29459); assay: cell-based or functional assay
Sequence (P29459 23-219, chain 1 of 2): as the sequence (P29459 23-219, chain 1 of 2) above
Sequence (P29460 23-328, chain 2 of 2, further chain): as the sequence (P29460 23-328, chain 2 of 2, further chain) above

| Substance | PHA assay IC50 [nM] |
| --- | --- |
| Y61-L94N (antibody) | 0.08 |
| Y61-L94F (antibody) | 0.06 |
